From US20210047399A1 (PHANES THERAPEUTICS, published 2021) come the findings set out here.

B1: anti-CD47/DLL3 bispecific antibody BA4(C) (bispecific antibody)
heavy 1: QVQLVQSGAEVKKPGASVKVSCKASGYTFTSYWMHWVRQAPGQGLEWIGNIDPSDSETHYAQKFQGRVTLTVDKSTSTVYMELSSLRSEDTAVYYCAGTDLAYWGQGTLVTVSS
heavy 2: EVRLSQSGGQMKKPGESMRLSCRASGYTFTSYVMHWVRQAPGRRPEWIGYINPYNDATKYARKFQGRATLTSDKYSDTAFLELRSLTSDDTAVYYCARGGYDYDGDYWGRGAPVTVSS
light: EIVLTQSPGTLSLSPGERATLSCHASQNINVWLSWYQQKPGQAPRLLIYKASNLHTGIPDRFSGSGSGTDFTLTISRLEPEDFAVYYCQQGQSYPFTFGQGTKVEIK
notes: Variable regions of BA1 on the IgG4 framework with the same cysteine mutations as BA1(C); not shown: IgG4 heavy chain constant region ("IgG4 frame work") with the same cysteine mutation as BA1(C); knob mutation not explic; hole mutations not expli; kappa light chain constant region
B2: anti-CD47/DLL3 bispecific antibody BA1 (KH2/H1/L2) (bispecific antibody)
heavy 1: QVQLVQSGAEVKKPGASVKVSCKASGYTFTSYWMHWVRQAPGQGLEWIGNIDPSDSETHYAQKFQGRVTLTVDKSTSTVYMELSSLRSEDTAVYYCAGTDLAYWGQGTLVTVSS
heavy 2: EVRLSQSGGQMKKPGESMRLSCRASGYTFTSYVMHWVRQAPGRRPEWIGYINPYNDATKYARKFQGRATLTSDKYSDTAFLELRSLTSDDTAVYYCARGGYDYDGDYWGRGAPVTVSS
light: EIVLTQSPGTLSLSPGERATLSCHASQNINVWLSWYQQKPGQAPRLLIYKASNLHTGIPDRFSGSGSGTDFTLTISRLEPEDFAVYYCQQGQSYPFTFGQGTKVEIK
notes: Common light chain L2; anti-CD47 arm KH2 (knob), anti-DLL3 arm H1 (hole); not shown: IgG1 heavy chain constant region, knob; IgG1 heavy chain constant region, hole; kappa light chain constant region
B3: anti-CD47/DLL3 bispecific antibody BA1(C) (bispecific antibody)
heavy 1: QVQLVQSGAEVKKPGASVKVSCKASGYTFTSYWMHWVRQAPGQGLEWIGNIDPSDSETHYAQKFQGRVTLTVDKSTSTVYMELSSLRSEDTAVYYCAGTDLAYWGQGTLVTVSS
heavy 2: EVRLSQSGGQMKKPGESMRLSCRASGYTFTSYVMHWVRQAPGRRPEWIGYINPYNDATKYARKFQGRATLTSDKYSDTAFLELRSLTSDDTAVYYCARGGYDYDGDYWGRGAPVTVSS
light: EIVLTQSPGTLSLSPGERATLSCHASQNINVWLSWYQQKPGQAPRLLIYKASNLHTGIPDRFSGSGSGTDFTLTISRLEPEDFAVYYCQQGQSYPFTFGQGTKVEIK
notes: BA1 further modified by S354C on the anti-CD47 HC (KH2) and Y349C on the anti-DLL3 HC (H1); not shown: IgG1 heavy chain constant region, knob with added cysteine; IgG1 heavy chain constant region, hole with added cysteine; kappa light chain constant region
B4: humanized anti-CD47 mAb KH3L1 (antibody, V domains shown)
VH: EVRLSQSGGQMKKPGESMRLSCRASGYTFTSYWMHWVRQAPGRRLEWIGNIDPSDSETHYARKFQGRATLTVDKYSDTAFLELRSLTSDDTAVYYCAGTDLAYWGRGAPVTVSS
VL: EIVMTQSPGTLSLSPGERATLSCHASQNINVWLSWYQQKPGQAPRLLIYKASNLHTGIPDRFSGSGSGTDFTLTISRLEPEDFAVYYCQQGQSYPFTFGQGTKVEIK
B5: humanized anti-CD47 mAb KH1L1 (antibody, V domains shown)
VH: QVQLVQSGAEVKKPGSSVKVSCKASGYTFTSYWMHWVRQAPGQGLEWIGNIDPSDSETHYAQKFQGRATLTVDKSTSTAYMELSSLRSEDTAVYYCAGTDLAYWGQGTLVTVSS
VL: EIVMTQSPGTLSLSPGERATLSCHASQNINVWLSWYQQKPGQAPRLLIYKASNLHTGIPDRFSGSGSGTDFTLTISRLEPEDFAVYYCQQGQSYPFTFGQGTKVEIK
notes: Humanized VH of anti-CD47 mAb 17C6A with humanized VL of anti-DLL3 13P9A
B6: humanized anti-CD47 mAb KH3L2 (antibody, V domains shown)
VH: EVRLSQSGGQMKKPGESMRLSCRASGYTFTSYWMHWVRQAPGRRLEWIGNIDPSDSETHYARKFQGRATLTVDKYSDTAFLELRSLTSDDTAVYYCAGTDLAYWGRGAPVTVSS
VL: EIVLTQSPGTLSLSPGERATLSCHASQNINVWLSWYQQKPGQAPRLLIYKASNLHTGIPDRFSGSGSGTDFTLTISRLEPEDFAVYYCQQGQSYPFTFGQGTKVEIK
B7: humanized anti-CD47 mAb KH1L3 (antibody, V domains shown)
VH: QVQLVQSGAEVKKPGSSVKVSCKASGYTFTSYWMHWVRQAPGQGLEWIGNIDPSDSETHYAQKFQGRATLTVDKSTSTAYMELSSLRSEDTAVYYCAGTDLAYWGQGTLVTVSS
VL: EIVMTQSPATLSLSPGETAIISCHASQNINVWLSWYQQRPGQAPRLLIYKASNLHTGIPDRFSGSGWGTDFNLSISNLESGDFGVYYCQQGQSYPFTFGQGTKVEIK
B8: humanized anti-CD47 mAb KH2L2 (antibody, V domains shown)
VH: QVQLVQSGAEVKKPGASVKVSCKASGYTFTSYWMHWVRQAPGQGLEWIGNIDPSDSETHYAQKFQGRVTLTVDKSTSTVYMELSSLRSEDTAVYYCAGTDLAYWGQGTLVTVSS
VL: EIVLTQSPGTLSLSPGERATLSCHASQNINVWLSWYQQKPGQAPRLLIYKASNLHTGIPDRFSGSGSGTDFTLTISRLEPEDFAVYYCQQGQSYPFTFGQGTKVEIK
notes: also called anti-CD47 parental mAb
B9: humanized anti-CD47 mAb KH3L3 (antibody, V domains shown)
VH: EVRLSQSGGQMKKPGESMRLSCRASGYTFTSYWMHWVRQAPGRRLEWIGNIDPSDSETHYARKFQGRATLTVDKYSDTAFLELRSLTSDDTAVYYCAGTDLAYWGRGAPVTVSS
VL: EIVMTQSPATLSLSPGETAIISCHASQNINVWLSWYQQRPGQAPRLLIYKASNLHTGIPDRFSGSGWGTDFNLSISNLESGDFGVYYCQQGQSYPFTFGQGTKVEIK
B10: humanized anti-CD47 mAb KH2L1 (antibody, V domains shown)
VH: QVQLVQSGAEVKKPGASVKVSCKASGYTFTSYWMHWVRQAPGQGLEWIGNIDPSDSETHYAQKFQGRVTLTVDKSTSTVYMELSSLRSEDTAVYYCAGTDLAYWGQGTLVTVSS
VL: EIVMTQSPGTLSLSPGERATLSCHASQNINVWLSWYQQKPGQAPRLLIYKASNLHTGIPDRFSGSGSGTDFTLTISRLEPEDFAVYYCQQGQSYPFTFGQGTKVEIK
B11: humanized anti-CD47 mAb KH1L2 (antibody, V domains shown)
VH: QVQLVQSGAEVKKPGSSVKVSCKASGYTFTSYWMHWVRQAPGQGLEWIGNIDPSDSETHYAQKFQGRATLTVDKSTSTAYMELSSLRSEDTAVYYCAGTDLAYWGQGTLVTVSS
VL: EIVLTQSPGTLSLSPGERATLSCHASQNINVWLSWYQQKPGQAPRLLIYKASNLHTGIPDRFSGSGSGTDFTLTISRLEPEDFAVYYCQQGQSYPFTFGQGTKVEIK
B12: humanized anti-CD47 mAb KH3L4 (antibody, V domains shown)
VH: EVRLSQSGGQMKKPGESMRLSCRASGYTFTSYWMHWVRQAPGRRLEWIGNIDPSDSETHYARKFQGRATLTVDKYSDTAFLELRSLTSDDTAVYYCAGTDLAYWGRGAPVTVSS
VL: EIVMTQSPATLSLSPGETAIISCHASQNINVWLSWYQQRPGQAPRLLIYKASNLHTGIPDRFSGSGWGTDFNLSISNLESGDFGVYYCQQGQSYPWTFGQGTKVEIK
B13: humanized anti-CD47 mAb KH2L3 (antibody, V domains shown)
VH: QVQLVQSGAEVKKPGASVKVSCKASGYTFTSYWMHWVRQAPGQGLEWIGNIDPSDSETHYAQKFQGRVTLTVDKSTSTVYMELSSLRSEDTAVYYCAGTDLAYWGQGTLVTVSS
VL: EIVMTQSPATLSLSPGETAIISCHASQNINVWLSWYQQRPGQAPRLLIYKASNLHTGIPDRFSGSGWGTDFNLSISNLESGDFGVYYCQQGQSYPFTFGQGTKVEIK
B14: humanized anti-DLL3 mAb H1L1 (antibody, V domains shown)
VH: EVRLSQSGGQMKKPGESMRLSCRASGYTFTSYVMHWVRQAPGRRPEWIGYINPYNDATKYARKFQGRATLTSDKYSDTAFLELRSLTSDDTAVYYCARGGYDYDGDYWGRGAPVTVSS
VL: EIVMTQSPGTLSLSPGERATLSCHASQNINVWLSWYQQKPGQAPRLLIYKASNLHTGIPDRFSGSGSGTDFTLTISRLEPEDFAVYYCQQGQSYPFTFGQGTKVEIK
notes: Humanized 13P9A
B15: humanized anti-DLL3 mAb H1L2 (antibody, V domains shown)
VH: EVRLSQSGGQMKKPGESMRLSCRASGYTFTSYVMHWVRQAPGRRPEWIGYINPYNDATKYARKFQGRATLTSDKYSDTAFLELRSLTSDDTAVYYCARGGYDYDGDYWGRGAPVTVSS
VL: EIVLTQSPGTLSLSPGERATLSCHASQNINVWLSWYQQKPGQAPRLLIYKASNLHTGIPDRFSGSGSGTDFTLTISRLEPEDFAVYYCQQGQSYPFTFGQGTKVEIK
notes: also called anti-DLL3 parental mAb
B16: humanized anti-DLL3 mAb H1L3 (antibody, V domains shown)
VH: EVRLSQSGGQMKKPGESMRLSCRASGYTFTSYVMHWVRQAPGRRPEWIGYINPYNDATKYARKFQGRATLTSDKYSDTAFLELRSLTSDDTAVYYCARGGYDYDGDYWGRGAPVTVSS
VL: EIVMTQSPATLSLSPGETAIISCHASQNINVWLSWYQQRPGQAPRLLIYKASNLHTGIPDRFSGSGWGTDFNLSISNLESGDFGVYYCQQGQSYPFTFGQGTKVEIK

For the first assay, the target named is T1, human CD47 extracellular domain (CD47(ECD)) (human, UniProt Q08722 19-139).
T1 construct: extracellular domain; Bought protein; also called human CD47(ECD); immobilized CD47
T1 sequence (Q08722 19-139 limits assumed): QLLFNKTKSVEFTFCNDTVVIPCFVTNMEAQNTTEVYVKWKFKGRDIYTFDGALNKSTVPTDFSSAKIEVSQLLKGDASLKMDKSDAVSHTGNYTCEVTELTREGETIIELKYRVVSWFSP
Put plainly: ELISA, CD47(ECD) coated on regular plate (FIG. 5). A general note: An ELISA detects its analyte on a solid surface through an enzyme-linked reagent.
As to B1, the binding result is “binds”.
Turning to B2, the binding result was “binds”.
With B3, the binding result is given as “binds”.

For a further assay, the target named is T1, human CD47 extracellular domain …. Put plainly: ELISA, human CD47(ECD) coated on plate. The method, then:
The purified mAbs were analyzed for their ability to bind to the extracellular domain of CD47 (CD47(ECD)) in an ELISA assay as follows: human CD47(ECD) (AcroBio, Cat #: CD7-HA2E9-50 μg) in carbonate coating buffer (50 μL/well at 1 μg/mL) was coated on a 96-well ELISA plate for 1 hour at room temperature. After washing, the plate was blocked in 5% BSA in TBST for 1 hour at room temperature and washed again. In each well of the plate, an antibody at 50 μL/well at various concentrations was added and incubated for 1 hour at room temperature. The plate was washed and the binding of the antibody to the immobilized CD47 was detected by incubating with anti-human IgG conjugated to horseradish peroxidase (hIgG-HRP) (ThermoFisher Scientific, Cat #: H10007) for 60 minutes at room temperature. Then after washing, the ELISA was developed using One-step Detection Solution (ThermoFisher Scientific, Cat #: 34028) and measured as the absorbance at 450 nm.
In general, EC50 refers to the midpoint of the concentration-response curve. Take B4: the EC50 was 0.09 nM.
In turn, B5 showed an EC50 of 1.17 nM.
On the same count and under the same terms, then B6, with 0.08 nM; and B7, with 0.76 nM.
The same measure, in the same setting: then B8, with 0.18 nM.
On to B9, for which the concentration giving a half-maximal response (EC50) stood at 0.18 nM.
Molecule B10 came in with a concentration giving a half-maximal response (EC50) of 0.19 nM.
Molecule B11 came in with an EC50 of 0.64 nM.
The same measure, in the same setting: with B12 the figure was 0.08 nM; with B13, 0.09 nM.

The next assay has as its target T2, recombinant FLAG-huDLL3 (human DLL3 extracellular domain with FLAG tag at the N-terminus) (human, UniProt Q9NYJ7 27-492).
T2 construct: Bought (Adipogen, Cat AG40B-0151); the whole entry is named here; also called recombinant DLL3 protein; recombinant human FLAG-huDLL3; not shown: N-terminal FLAG tag
T2 sequence: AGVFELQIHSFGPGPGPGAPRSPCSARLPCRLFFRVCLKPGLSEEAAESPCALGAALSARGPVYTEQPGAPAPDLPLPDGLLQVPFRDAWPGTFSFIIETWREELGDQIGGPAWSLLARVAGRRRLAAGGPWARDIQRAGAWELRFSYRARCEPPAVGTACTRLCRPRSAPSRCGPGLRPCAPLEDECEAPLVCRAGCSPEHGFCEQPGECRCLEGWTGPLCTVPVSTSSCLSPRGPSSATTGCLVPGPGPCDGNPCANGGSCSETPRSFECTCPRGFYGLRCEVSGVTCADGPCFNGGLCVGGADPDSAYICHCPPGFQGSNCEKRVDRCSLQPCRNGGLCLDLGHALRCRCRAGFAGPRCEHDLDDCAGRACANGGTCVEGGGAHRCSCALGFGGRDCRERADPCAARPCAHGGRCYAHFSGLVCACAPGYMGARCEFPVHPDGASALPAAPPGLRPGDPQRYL
The assay is described as follows: ELISA, FLAG-huDLL3 coated on plate.
On to B14, for which the concentration for a half-maximal effect (EC50) was 0.13 nM.
The same measure, in the same setting: then B15, with 0.12 nM; and B16, with 0.15 nM.
